From US20250388646A1

Legend:
Assay in all cases: cell-based or functional assay
[1] = target: dominant negative Fas receptor (dnFAS)
FAS-(41BB) construct = FAS-(41BB) construct (UniProt Q07011)
[2] = target: FAS-(CD27) Fas redirector
[3] = target: FAS-(MyD88-CD40) Fas redirector

Measured: percentage of viable cells after 24 hours of exposure to CH11

FAS-(CD27) Fas redirector, sequence (chain, as listed by the source): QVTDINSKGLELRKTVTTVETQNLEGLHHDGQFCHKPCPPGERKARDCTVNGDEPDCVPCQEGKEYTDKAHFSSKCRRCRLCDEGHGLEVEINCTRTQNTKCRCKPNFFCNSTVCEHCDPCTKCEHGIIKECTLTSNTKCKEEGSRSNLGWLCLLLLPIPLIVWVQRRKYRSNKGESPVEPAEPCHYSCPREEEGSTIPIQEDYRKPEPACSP
UniProt Q07011, sequence (Q07011 other isoform, or with tags, fused parts or gaps): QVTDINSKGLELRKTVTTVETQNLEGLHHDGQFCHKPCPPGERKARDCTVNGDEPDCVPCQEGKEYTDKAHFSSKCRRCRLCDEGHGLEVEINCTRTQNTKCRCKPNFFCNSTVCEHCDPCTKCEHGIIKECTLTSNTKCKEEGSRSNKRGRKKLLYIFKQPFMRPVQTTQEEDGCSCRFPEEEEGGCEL
FAS-(MyD88-CD40) Fas redirector, sequence (chain, as listed by the source): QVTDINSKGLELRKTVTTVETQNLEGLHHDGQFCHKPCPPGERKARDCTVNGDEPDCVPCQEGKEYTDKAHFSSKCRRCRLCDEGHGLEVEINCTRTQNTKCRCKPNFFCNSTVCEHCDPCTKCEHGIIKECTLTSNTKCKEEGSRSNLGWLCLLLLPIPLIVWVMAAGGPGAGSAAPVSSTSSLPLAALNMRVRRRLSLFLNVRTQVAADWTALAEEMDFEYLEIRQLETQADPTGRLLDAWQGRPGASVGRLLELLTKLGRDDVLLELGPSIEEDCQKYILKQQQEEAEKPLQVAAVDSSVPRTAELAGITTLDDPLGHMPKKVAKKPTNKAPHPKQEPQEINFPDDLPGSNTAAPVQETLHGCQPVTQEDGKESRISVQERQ

CH11 (Sigma-Aldrich), a Fas agonist (antibody)
> 60%: all assays above
